Assay [1] deals with HIV-1_(YU-2) gp140 trimer. Put plainly: BLI (equilibrium KD).
Assay [2] concerns the target HIV-1_(YU-2) gp140 trimer. Put plainly: BLI (kinetic KD, value in parentheses).
The target of assay [3] is soluble human FcγRIIIB, biotinylated, tetramerized with streptavidin-PE (UniProt O75015). Put plainly: multiplex assay: antigen-conjugated beads stained with tetramerized receptor. Particulars: highest antibody concentration point, log10 Ab (nM) about 1.6 (estimated); parent: est. 3.3; read off a plot.
Sequence of soluble human FcγRIIIB, biotinylated, tetramerized with streptavidin-PE (O75015 17-200): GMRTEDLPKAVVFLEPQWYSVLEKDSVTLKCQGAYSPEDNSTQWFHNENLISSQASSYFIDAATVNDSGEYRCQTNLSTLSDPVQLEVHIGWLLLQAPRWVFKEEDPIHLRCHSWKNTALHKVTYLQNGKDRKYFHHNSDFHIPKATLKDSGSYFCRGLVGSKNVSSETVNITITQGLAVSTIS
Assay [4] has as its target soluble human FcγRIIA, biotinylated, tetramerized with streptavidin-PE (UniProt P12318). The description is as above. Particulars: highest antibody concentration point, log10 Ab (nM) about 1.6 (estimated); parent: est. 4.1; read off a plot.
Assay [5] has as its target soluble human FcγRIIB, biotinylated, tetramerized with streptavidin-PE (UniProt P31994). Described as above. The conditions noted are these: highest antibody concentration point, log10 Ab (nM) about 1.6 (estimated); parent: est. 3.4; read off a plot.
Assay [6] deals with soluble human FcγRIIIA, biotinylated, tetramerized with streptavidin-PE (UniProt P08637). Described as above. Particulars: highest antibody concentration point, log10 Ab (nM) about 1.6 (estimated); parent: est. 4.3; read off a plot.
Sequence of soluble human FcγRIIIA, biotinylated, tetramerized with streptavidin-PE (P08637 17-208): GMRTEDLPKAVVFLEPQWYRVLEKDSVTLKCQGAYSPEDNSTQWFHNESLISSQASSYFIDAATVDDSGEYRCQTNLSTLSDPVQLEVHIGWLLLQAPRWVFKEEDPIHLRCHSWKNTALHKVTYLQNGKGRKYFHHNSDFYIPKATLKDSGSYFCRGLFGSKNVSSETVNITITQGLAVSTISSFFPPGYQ

Sequence of soluble human FcγRIIA, biotinylated, tetramerized with streptavidin-PE (P12318 34-217): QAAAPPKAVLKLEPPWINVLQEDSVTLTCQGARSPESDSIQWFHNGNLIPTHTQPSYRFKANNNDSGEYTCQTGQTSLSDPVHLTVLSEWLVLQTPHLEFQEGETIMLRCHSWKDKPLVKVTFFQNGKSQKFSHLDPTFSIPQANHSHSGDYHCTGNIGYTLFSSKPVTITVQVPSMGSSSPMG
Sequence of soluble human FcγRIIB, biotinylated, tetramerized with streptavidin-PE (P31994 43-217): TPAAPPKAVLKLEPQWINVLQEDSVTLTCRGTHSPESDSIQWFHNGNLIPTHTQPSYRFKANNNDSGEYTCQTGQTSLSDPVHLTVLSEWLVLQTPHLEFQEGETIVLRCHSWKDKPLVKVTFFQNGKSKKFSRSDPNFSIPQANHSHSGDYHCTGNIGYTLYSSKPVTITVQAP

In the case of “IgG1 b12 (unmodified Fc) (from UniProt P01857) E430G”, the Kd turned out to be 0.9 nM in assay [1] and 2.26 nM in assay [2]. Besides, the values for the response in assay [3] and in assay [4] were 3.1 log10 MFI and 4 log10 MFI, respectively.
On to “IgG1 b12 (unmodified Fc) (from UniProt P01857) G236A; S267E; H268F; S324T; I332E”, for which the Kd in assay [1] was determined as 1.93 nM; in assay [2], 2.78 nM. In addition, the response in assay [5] is 4.3 log10 MFI; in assay [3], 3.2 log10 MFI; in assay [4] it was 4.3 log10 MFI.
In the case of “IgG1 b12 (unmodified Fc) (from UniProt P01857) K322A”, the figures for the Kd in assay [1] and in assay [2] were 2.95 nM and 2.56 nM, respectively.
In the case of “IgG1 b12 (unmodified Fc) (from UniProt P01857) L234A; L235A”, the Kd was 2.04 nM in assay [1] and 2.06 nM in assay [2]. Moreover, the response in assay [6] was 3.4 log10 MFI; in assay [5], 2 log10 MFI; in assay [3] it was 2 log10 MFI; in assay [4], 2 log10 MFI.

As a reminder, the Kd is the equilibrium constant for the complex coming apart.

Source of the values: PMC8510540.
